Consider one substance from patent US20060084593A1.

The assay deals with gp120/CD4 complex (human immunodeficiency virus (HIV), hxbc2) (UniProt P04578). The experiment in a line: SPR (Biacore); 48d immobilized; gp120 50 nM, CD4 250 nM, heparin dp16 at 125 nM (0.6 µg/ml) as inhibitor. On the technique in general: SPR reads the build-up and loss of mass on a sensor chip optically.

On to “antibody 48d specific for the CD4i epitope”, for which the % inhibition of the interaction by heparin dp16 (125 nM) was in the range of 90 to 100%.
